{
  "source": "the DeepSol protein solubility set",
  "data": [
    {"assay": "soluble on expression in E. coli; label from the status in PepcDB or PDB records", "values": [
      {"sequence": "MAFEMAPADPTLDLNMQLTKLGHGLLSGKYSMPATQKDATTGDPRQEGIPPRMFKNVIAASHAEFSSMRQQDALDFFLHLVGKVERASNTTPDLDPSRSFKFGIEEKILCPSGKVGYNKREDCILSLNIPLHEATNKDELEAFHKQKAGKGLEENDMRSSDEIVRPRVPLEACLANFASSEPIEDYYSSALKGMTTAIKTTGLTSFPDYLVLHMRKFVMEEGWVPKKLDVYIDVPDVIDISHMRSKGLQPGEELLPDGVPEEVMESAQPVANEEIVAQLVSMGFSQLHCQKAAINTSNAGVEEAMNWLLSHMDDPDIDAPISHQTSDIDQSSVDTLLSFGFAEDVARKALKASGGDIEKATDWVFNNPNASVSDMDVSSSNSAQTPAQSGLPDGGGKYKLFGIVSHMGTSVHCGHYVAHILKEGRWVIFNDDKVGISTDPPKDMGYVYFFQRLD", "soluble on expression in E. coli": "soluble"},
      {"sequence": "MGSDKIHHHHHHMLKSGGSFFYQVAQGYAMTKQPKTIQEMMTLLVEERGLDITGFSDFSTVLLDCNYYRLSGYFRAFQIDPSHGNNRFRNGTHIKDFMIPYLMDEQLRLLILRGTSSLEQTLRAHFAYYLAQNGGAYSYTELSSYKTIKYSDGTEAREVLIENIHKWLERSSEVCIRHYRNNNEPIPIWAAVEAMPFDTLSKMISLHTNTTAVDELNQSLSLGKNRQRAAQIIHSMVYLRNICSHHCRLWNREIVLPPPVLDATAERYGSYAYEDRSVWKSLIVLMDLIDGIKKNSTYSSMLIKQAESNDNYFWGLCHPKRWH", "soluble on expression in E. coli": "not soluble"},
      {"sequence": "IQTTAPPVKESSFVEKMKKTGRNIIVFYGSQTGTAEEFANRLSKDAHRYGMRGMSADPEEYDLADLSSLPEIDKSLVVFCMATYGEGDPTDNAQDFYDWLQETDVDLTGVKFAVFGLGNKTYEHFNAMGKYVDQRLEQLGAQRIFELGLGDDDGNLEEDFITWREQFWPAVCEFFGVEATGEESSIRQYELVVHEDMDVAKVYTGEMGRLKSYENQKPPFDAKNPFLAAVTANRKLNQGTERHLMHLELDISDSKIRYESGDHVAVYPANDSALVNQIGEILGADLDVIMSLNNLDEESNKKHPFPCPTTYRTALTYYLDITNPPRTNVLYELAQYASEPSEQEHLHKMASSSGEGKELYLSWVVEARRHILAILQDYPSLRPPIDHLCELLPRLQARYYSIASSSKVHPNSVHICAVAVEYEAKSGRVNKGVATSWLRAKEPAGENGGRALVPMFVRKSQFRLPFKSTTPVIMVGPGTGIAPFMGFIQERAWLREQGKEVGETLLYYGCRRSDEDYLYREELARFHKDGALTQLNVAFSREQAHKVYVQHLLKRDREHLWKLIHEGGAHIYVCGDARNMAKDVQNTFYDIVAEFGPMEHTQAVDYVKKLMTKGRYSLDVGS", "soluble on expression in E. coli": "soluble"},
      {"sequence": "MAHHHHHHMEGQERRSVVEMTNTKTILLDPKDGWAPKAQFDFDASLWSIPPTHRIVHTFQDTKHKTYATQKDVYNLIAKDLVPHVFNGFNSCILTYGQTGSGKTYTMMGLYDPNASCGGDGEEGIIPRVSNDIFIILKERMEEEAKTRPPRDRTKFRVEVSFVEIYMERVRDLLDPALRHTRSNEHLQDARIRQDPYSGPFVEGVTKYEVENWTQCCTLLERGSQHRTTCATAVHNQSSRSHAIFQLTVVQEQVVPGNNKYALPAFKTQAGRINLVDLAGSERGGFQDYVKESAAINTSLLALRRVIDNLTERQNMLMEMAEAEITGKHYQERPLPQVPFRDSVLTWLLSDSIGGNARTTMVATLSPLVKNYADTLATLQWSSRARNLVTLVKMNDQALVHNGMASHAGALDNAVRIQRQNLDSLRQTLRSKQEAAQQLERQTKEHKKSLTKVRGRERAILRDRAALIIQRAFHRFLFYKKYEAYELHHAKLRGGNKRGTGDAADFQKIRKEAEAREQAAKEALKAEEALTDEKAAAVARYESNYEARALRRREAEERQARIVEVINGNELLRQYVEKRRQEVEALRSVADNENREREMAVKKLADMIKAIADHKTDQHKRKVEEDQKMLEMLRKKRDEVRSRRYEVLRQLQTLRERHKKVVKK", "soluble on expression in E. coli": "not soluble"},
      {"sequence": "MGSDKIHHHHHHMVAATSQNTFDSPRSPLYNFTMDIRPLSDVAGVILVGGRSRRMGRDKALIPLGGKPLVERVIDAFRPLFERILLVGDRGERFASYGLPVFPDIHPGSALGGLYTGLVRAGTPHVFVSACDVPWPDPRVIARLCSLREGFDVVVPRTVGGSEPLFAVYGTGCLPAMERMLREGNYRIYDFYPEVRTRYVEQAELADLVTPARTFVNVNTPEEFETIRNREEGMAIKAVSFVAKSGTGKTTLLEKVIAELKGRGYRIGVIKHDAHRFDIDHPGKDSHRLAAAGADTMLIASPEKLALVKKYDESPPLDELLATYFGDVDIVLTEGFKKSSLPKIEVHRMERSATLLCRGEEHDPTLVAVASDAALALDVPVFDLNNPAQVADFVERTFLAAGAA", "soluble on expression in E. coli": "not soluble"},
      {"sequence": "MGSDKIHHHHHHMTGTANYVEFEPTRMGLYEASIRVKHECPYRRISERYPDLTIREWPLSDCQVLEITTETTPTDELLDEINEIGTVLYESADDNGYHVVTQSCLCSLEDSVIDRFEEHNCLYQSPTIYRQGWEHYTVVAFDSEDVRELLDSLRSDREIELLSKTSISETQIPHSMLAPANQLFEDITDRQLAALQLALESGYYEQPRKTSLRDLAERTAVARSTYEEHLRKAENKLLTNAGQFLRLVTATSTTNPLGVESGRRTEQTAD", "soluble on expression in E. coli": "not soluble"},
      {"sequence": "SPSAEERQKEERTAGLNETVPQATDGELPDDKLKGYELGRDEEKESHRQETLGNLYDYFEKKDETREQEISEEAASDGLHPIERSVSRYEETSQMVHSFYEPPAYDYEKEALREELDMIRSELATLKEEKEEEIDHLELLEKSYRMAAKYFPASGDANSRDAYTRSQERPADAPAPKTAVTAERAALPAVELLPEKKAIVSSLDQPMSDSAFIAEYGHKERNFGFRSADVPASSVTRNTLRVVVDRTTTLQHGDFVQLRLLESARLHDLSIPRHTRLMAQARIDGNRMKLHITSIEYGGRIVSVQLSAFDTDGQEGVFIPGSEEVSALKE", "soluble on expression in E. coli": "not soluble"},
      {"sequence": "MGSDKIHHHHHHMSVNETTNIKKNERSVLLPERHPNHELFICDVLEAIPKDDLASMEHPVFSLATKPDTRTLIYEHRDVKIQITPSVKGLATIFDKDLLIFCISQMIAKKNRGEPLSQNVRLHAYDLLIWTNRETSGDAYRRLIEAFERLRGTTIVTNIKADGEEITTGFGLIDSFKVVRHTATGRMSELEVRISDWMFKIIQGSQVLTLSRDYFRLRKPIERRIYEIARKHCGEQDEWRISIELLQKKTGASSHERAFKAMVRELVKCDHLPDYSVTLEDDMVIFYNRAGLSEKIPLTAFPQLNAETYNDARTVAPGYDVYYLEQEWRDMWVDTGMPLLHNPDKAFIAFCKSRAKRRPMGR", "soluble on expression in E. coli": "not soluble"},
      {"sequence": "MRPGLSAKRLVVKVGSAVLTGERGLDLEAMAEIARQVAALREEGREVVLVSSGAVAAGMRRLGLKERPKDMPKKQALAALGQPLLMAFWQEAFAPFGLPVAQVLLTAEDLSSRSRYLNAKATLRALLDLGAIPVINENDTVAFEEIRFGDNDQLSARVAALVEAGLLALLSDVDALYEEDPKKNPQARPIPEVESVEAVLAHAGEENPLGSGGMKSKLLAARIAGRVGIPTLLLPGKRPGVLLQALSGAPLGTYFHARRRYRGEKAWLFGLLRPKGELVLDRGAVRALKERGASLLPAGVKEVRGRFSRGEAVRLLSEEGEEVGVGLANYASEEIARIKGRRSAEIEAVLGYRYTEEVVHRDHLALKEEA", "soluble on expression in E. coli": "soluble"},
      {"sequence": "GHELSAIIPRSSWLAQKPMDEPLPLQLPVKYVVILHTATESSEKRAINVRLIRDMQSFHIESRGWNDIAYNFLVGCDGNIYEGRGWKTVGAHTLGYNRISLGISFIGCFMKELPTADALNMCRNLLARGVEDGHISTDYRLICHCQCNSTESPGRRLYEEIQTWPHFYNIEEEEQ", "soluble on expression in E. coli": "soluble"},
      {"sequence": "MGHHHHHHSHMRKIDLCLSSEGSEVILATSSDEKHPPENIIDGNPETFWTTTGMFPQEFIICFHKHVRIERLVIQSYFVQTLKIEKSTSKEPVDFEQWIEKDLVHTEGQLQNEEIVAHGSATYLRFIIVSAFDHFASVHSVSAEGTVVSNLSS", "soluble on expression in E. coli": "soluble"},
      {"sequence": "MLSKITQELLKMNNVLLMRPDDSEFMIPDDWSGLNAKGITYEQDNRVTESFLPFKSFYCSPVCTTVELISQNNCFAMGIRYLLEKKRDLRLNHFKAFSHKCETKPDVLIMTGCTVADTYSIFSRIVEENIMKTMTPIVIITGHHSEDLCSLASKLGGVKIISPTEKIAKIENAINDAFNSKPKKIRFLTDILSPQQIETMKMVAQGRSVNEISAAMNISIKTVYAHKVRAINKLGIKKKVYEALFYKALIQFN", "soluble on expression in E. coli": "not soluble"},
      {"sequence": "MAGDPMRKSKLTFIATFLILLFLSMPYKAHAASQTPITRADAEQRALTMINLNWTYSKSKNGVLPSAYSGSITAPSQFRGIENVVATGIPYCWGGFDGLNSSSYGESWTNFTDAVNKGAFVGNVKSSSYGHITGTAGLDCSGFVQATFNIKDYKLSTSTIFNQYFTKIDIKDIKHMDILNLPGNHVVIFDKWGTRNGVNGAYTYEATPDTTYGGIQGTKQYFMSMNTVSQYIPGRYVNIKEVAYVQVINASSLNIRTGPSTSYPIIGTISQNQIAEVTGYSSDGTWYKIKINGIEGYASSTYLTYVNNLEHHHHHH", "soluble on expression in E. coli": "not soluble"},
      {"sequence": "MDPSENVFKYETAYDLLVRLGAERLFLRTCLSILDPVLELHPGKCYEIDGDLGVGKTQICYSFAAKFLQTKKTAKMGWIGATPLRTDHLLLHIEHFGNQTNEDILDRIVCKRVEKIAELQDSLTRFLDTINLQLVIVENIDAILHDTVYHKEMGRSMQSDVVERIRKLTKLEITVILTNHITHWRGYPAPALGAFWSSQINNRFFIEKRNDDSDIRIVSAMKGEQDDGMNRIEFKIGDRGLKAVE", "soluble on expression in E. coli": "not soluble"},
      {"sequence": "MSLTVSFVHLRLHTEFSLVDGLVRVKPLAKAVAGLGMPAVAVTDQSNMCSLVKFYKTAMGAGIKPICGADIWLASREEDGPLSRLSLLAMNAKGYRNLTELISRGWSEGQRNGEIIIERDWVKEAAEGLIALSAAKEGEIGHALLDGEEAKAEALLREWMEVFPERFYVEVQRTSRVNDEEHLHAAVALASRCNAPLVATNDVRFIKQEDFEAHETRVCIGEGRTLDDPRRPRTYSDQQYLKSPAEMAELFSDLPEALENTVEIAKRCNIEVQLGKYFLPDFPTPNGMGIDDYLRHASFEGLEERLEVLLPKDTPDYEAKRQVYVDRLNFELDIIIQMGFPGYFLIVMDFIKWAKNNGVPVGPGRGSGAGSLVAYVLKITDLDPLAYDLLFERFLNPERISMPDFDVDFCMEGRDRVIDYVADAYGRNAVSQIITFGTMAAKAVVRDVARVQGKSYGLADRLSKMIPFEVGMTLDKAYEQEEMLRDFLKSDEEAAEIWEMALKLEGITRGTGKHAGGVVIAPTKLTDFSPIACDEEGGGLVTQFDKDDVEAAGLVKFDFLGLRTLTIIKWAMEIINREQAKKGLEPVNIDFIPLDDKPTYSLLQKAETTAVFQLESRGMKELIKKLKPDCLEDLIALVALFRPGPLQSGMVDDFINRKHGRAELSYPHPDYQYAGLEPVLKPTYGIILYQEQVMQIAQVMAGYTLGGADMLRRAMGKKKPEEMAKQRGGFIEGCKNNGEGHHHHHH", "soluble on expression in E. coli": "not soluble"},
      {"sequence": "MKKDIGDHLISKLDLQDIAKVLSDELSGSELNTVLLDIFNKRVQQETPSSLLSKYEGNKLVKPALLEDVLEYKEKELRCYKLIAGRGFEPIELSPVAQFGTNSVIATVDQKKVLTSLRNTEVQADPTNTIALHYASLKKKGELDNKTYNYSNISRVIRTQVFNNPNFTPHFTVLALISCGRDTGSFNFEKEELLKHLTTSYEICKSYGVEKIYYEIIPCKGYDSQSPLIMESISYVRKKNSNLEVLVIAPEHDNNYYHGFRIKQQIVIGGNTIEIADGGLLDWTQQLLTNKKERMMTFGLGIQVLYHLTK", "soluble on expression in E. coli": "soluble"},
      {"sequence": "GPGSMDTIEFLHTVGKLKETMRTGWVETGVHQPESVSDHMYRAALLCMMCPDSSLNRDRLVRMALCHDVGESIIGDISPKMGVPAAEKHKREKEAILHLRGLLPHDSPLEKELQELWEEYETQGTPEARFLRDIDLLEMVTQAHAYEKTHPELNFDSFYVSGEKIKHPWVRSIYDNLVSTRPSRKS", "soluble on expression in E. coli": "soluble"}
    ]}
  ]
}
